The target of experiment [1] is T1, C1r (human, UniProt P00736 18-705, limits assumed).
T1 construct: Species read from 'Recombinant human MASP-2 or C1r, C1s, CFD, MASP-1 and MASP-3'
T1 sequence (looked up): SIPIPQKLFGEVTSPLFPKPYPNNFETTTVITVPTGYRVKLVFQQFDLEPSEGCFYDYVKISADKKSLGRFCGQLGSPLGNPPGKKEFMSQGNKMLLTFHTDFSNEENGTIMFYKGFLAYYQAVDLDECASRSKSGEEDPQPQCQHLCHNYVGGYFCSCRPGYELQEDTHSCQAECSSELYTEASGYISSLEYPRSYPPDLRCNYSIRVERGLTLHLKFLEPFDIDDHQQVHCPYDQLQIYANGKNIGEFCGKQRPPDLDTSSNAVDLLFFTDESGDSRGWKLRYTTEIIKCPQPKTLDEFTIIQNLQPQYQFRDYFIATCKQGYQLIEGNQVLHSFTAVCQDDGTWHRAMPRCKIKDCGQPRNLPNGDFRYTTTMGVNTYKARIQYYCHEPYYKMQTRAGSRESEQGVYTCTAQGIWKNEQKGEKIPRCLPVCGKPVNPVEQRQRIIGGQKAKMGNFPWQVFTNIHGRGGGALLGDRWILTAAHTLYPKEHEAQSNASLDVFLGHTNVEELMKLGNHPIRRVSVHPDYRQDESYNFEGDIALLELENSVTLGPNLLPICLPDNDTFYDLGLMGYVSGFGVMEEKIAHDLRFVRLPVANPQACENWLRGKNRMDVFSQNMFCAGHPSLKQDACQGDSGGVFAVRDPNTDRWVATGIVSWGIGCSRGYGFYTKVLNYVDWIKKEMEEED
Briefly: solid phase ELISA, against human MASP-2 as reference. From the text:
(§1) The apparent dissociation constant (KD) was estimated by nonlinear regression using a 4-parameter logistic model.
Fold selectivity calculated as KD(related serine protease)/mean KD(MASP-2).
A general note: An ELISA detects its analyte on a solid surface through an enzyme-linked reagent.

For experiment [2], the target named is T2, C1s (human, UniProt P09871 16-688, limits assumed).
T2 construct: Species read from 'Recombinant human MASP-2 or C1r, C1s, CFD, MASP-1 and MASP-3'
T2 sequence (looked up): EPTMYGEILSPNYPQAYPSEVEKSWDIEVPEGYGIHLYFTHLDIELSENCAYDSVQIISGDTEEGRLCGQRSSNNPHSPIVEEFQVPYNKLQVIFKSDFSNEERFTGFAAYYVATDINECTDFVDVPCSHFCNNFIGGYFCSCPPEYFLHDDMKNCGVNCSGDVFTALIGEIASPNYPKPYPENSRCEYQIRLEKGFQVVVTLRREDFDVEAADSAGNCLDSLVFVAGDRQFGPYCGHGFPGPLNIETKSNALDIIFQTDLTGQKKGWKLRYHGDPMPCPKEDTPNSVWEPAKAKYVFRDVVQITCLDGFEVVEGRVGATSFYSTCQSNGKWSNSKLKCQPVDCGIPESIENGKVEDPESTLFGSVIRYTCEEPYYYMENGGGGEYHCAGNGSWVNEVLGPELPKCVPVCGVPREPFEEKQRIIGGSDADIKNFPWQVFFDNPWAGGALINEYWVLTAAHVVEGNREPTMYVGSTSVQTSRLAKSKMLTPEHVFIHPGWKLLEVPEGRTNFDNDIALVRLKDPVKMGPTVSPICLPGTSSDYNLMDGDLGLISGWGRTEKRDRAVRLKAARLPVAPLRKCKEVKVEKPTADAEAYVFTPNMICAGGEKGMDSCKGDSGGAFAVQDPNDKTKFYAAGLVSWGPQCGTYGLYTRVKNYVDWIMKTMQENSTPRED
Put plainly: solid phase ELISA, immobilized protease, apparent KD.
Description: as §1

The target of experiment [3] is T3, MASP-3 (human, UniProt P48740-2 20-728, limits assumed).
T3 construct: Species read from 'Recombinant human MASP-2 or C1r, C1s, CFD, MASP-1 and MASP-3'
T3 sequence (looked up): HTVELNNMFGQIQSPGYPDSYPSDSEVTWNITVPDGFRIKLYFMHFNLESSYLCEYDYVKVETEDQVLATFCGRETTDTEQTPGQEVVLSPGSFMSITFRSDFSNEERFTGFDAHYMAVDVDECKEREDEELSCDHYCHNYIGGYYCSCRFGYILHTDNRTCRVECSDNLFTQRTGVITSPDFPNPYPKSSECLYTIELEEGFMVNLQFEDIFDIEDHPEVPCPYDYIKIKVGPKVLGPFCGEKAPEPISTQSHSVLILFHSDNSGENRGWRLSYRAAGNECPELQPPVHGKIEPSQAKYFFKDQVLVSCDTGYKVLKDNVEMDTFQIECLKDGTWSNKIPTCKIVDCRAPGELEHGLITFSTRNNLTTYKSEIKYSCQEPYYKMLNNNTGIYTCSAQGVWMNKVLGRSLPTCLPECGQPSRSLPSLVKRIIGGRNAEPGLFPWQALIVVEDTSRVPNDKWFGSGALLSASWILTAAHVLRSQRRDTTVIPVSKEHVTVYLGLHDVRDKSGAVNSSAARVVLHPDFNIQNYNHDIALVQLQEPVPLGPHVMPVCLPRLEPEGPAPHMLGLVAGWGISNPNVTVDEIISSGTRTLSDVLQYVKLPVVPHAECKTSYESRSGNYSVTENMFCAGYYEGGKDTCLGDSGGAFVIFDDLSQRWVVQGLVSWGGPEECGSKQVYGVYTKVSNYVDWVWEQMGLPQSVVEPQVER
Described as above.
Description: as §1

Experiment [4] concerns the target T1, C1r. The description is as above.
Description: as §1

The target in experiment [5] is T4, CFD (human, UniProt P00746 26-253, limits assumed).
T4 construct: Species read from 'Recombinant human MASP-2 or C1r, C1s, CFD, MASP-1 and MASP-3'; also called factor D; complement factor D
The experiment is described as above.
Description: as §1

T4 sequence (P00746 26-253 limits assumed): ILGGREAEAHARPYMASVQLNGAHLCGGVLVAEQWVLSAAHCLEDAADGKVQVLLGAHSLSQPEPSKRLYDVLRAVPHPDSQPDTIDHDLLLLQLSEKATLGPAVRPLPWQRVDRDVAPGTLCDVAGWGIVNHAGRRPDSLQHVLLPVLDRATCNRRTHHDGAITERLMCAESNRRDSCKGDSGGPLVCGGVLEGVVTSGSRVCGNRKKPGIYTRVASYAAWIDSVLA

B1: mAb OMS858 (humanized anti-MASP-2 antibody) (antibody, V domains shown)
VH: QVQLVQSGAEVKKPGASVKVSCKASGYTFTNHHMHWLRQAPGQGLEWIGDIDASDSETHYIEKFKDRATLTIDKSSSTAYMELSSLRSEDTAVYYCARGDITTTLRYFDVWGQGTLVTVSS
VL: DIQLTQSPSSLSASVGDRVTITCSASSSVRYMYWYQQKPGKAPKLLIYDTSNLASGVPSRFSGSGSGTDNTLTISSLQPEDFATYYCQQWSSYPLTFGQGTKVEIKR
notes: also called antibody OMS858; biotinylated OMS858
Consider B1, for which, in experiment [1], the “Fold selectivity (KD related serine protease / mean KD MASP-2)” value is above 2000 fold. Also, the Kd in experiment [2], in experiment [3], in experiment [4] and in experiment [5] was above 100 µg/mL each time.
